From US5876949, “Antibodies specific for fragile X related proteins and method of using the same” (The Trustees of the University of Pennsylvania, dated 1999)

Target: GAL4(1-147)-FMR1, FMR1 fused to the DNA binding domain of the yeast transcription factor GAL4 (plasmid … (yeast; human, UniProt P04386)
Test: yeast two-hybrid, HIS3 and LacZ reporters in HF7C

B1: GAL4 activation domain alone (empty vector pGAD424) (other)
chain: ANFNQSGNIADSSLSFTFTNSSNGPNLITTQTNSQALSQPIASSNVHDNFMNNEITASKIDDGNNSKPLSPGWTDQTAYNAFGITTGMFNTTTMDDVYNYLFDDEDTPPNPKKE
binding result: no binding
